Assay: soluble on expression in E. coli; label from the status in PepcDB or PDB records

Soluble on expression in E. coli, not soluble:
MESDPMFIGFGYDRHPLVEGRRLVLAGVEIDAPLGSLGHSDGDVLSHAIIDALLGAGCLGDIGTWFPETKEYKDANSLDLLKETVKILEERGFSVVNVDATVVASIVKLSPYREKIVENLKSALETSRVNVKFKSGNTLGFEGEERGISAYAVCLVEEKGCTKST
MGSDKIHHHHHHMTLVSTLSFLKKLNKNNNKEWFDKNRSAYEEAKKEVKALVQLVIEKTAVFDPSIASLEPKDCMFRINRDVRFSKDKSPYKTNMGFMIAPGGKKSIKGCYYVHIEPGNCFIAGGIWMPMPEHLKLIRQEIDYNGDALKKIFSSKDVKKYFSDFDEESKLIRMPKDYEETHPYAEWLKLKSFTVTFPIDEAIFSDKKVVEEITKPFKGIHALNAFLNGALDS
MSLGRRAAIYARYSTELQDGRSIDDQVALCREHAARSGLTVVATYDDRAKTSASIFGRDGLARMMEQARARQFDVVIVEALDRLSRDQEDLAHIHKRLSFARIDILTVHEGVADSVSVGLRGLMGTMFLEALKAKTRRGLAGVIRDGRHAGGQTYGYRGVPGEPGKREIVAHEAEIIREIFAAYVEGKSPRTIAGELNARGIAAPRGPKWNASTLNGNPQRGYGILRNPMYDGRLVWNRVTMVRDPDTGRRVNRENPLDARQEVEAEHLRIVPRPLFEAAVRRHAQQAEAVRTGKITKAPPRPFSGLIRCACCGGGMSIHDRCGEAIRIRCSTANESGSCENKARYRLEKIEEAIFLRLRAQLDRPDYLKEFVRVYAEERRRLTETARRDRARLERAAADSRARYMRLVDMMARGLIEGEEADAQVLQAKQAAEIARSELEIASSEDNVVELHPQATAAYTRAIADLSAALQRGDGTFDATSVEALRRIITEITVHPKDEAGDVLVEVRGNMERLLGIGQQIVGGPMVARGGLEPPTPREGHHHHHH
ICTTICPYGRLQGVLLDKNSINVAYDYIRGERRGHLKRGEDREIAGKGDCIDCHQCVHVCPTGIDIRNGVQMECINCTACIDEC
MGSDKIHHHHHHMFRTNPLKIIMLGPSLLQQGGISGYEKLFLEYAPSEIHICHIITHEEGTIAFKIMVFLKAIWKFIWMLISEEIDIVQLEISQRGSVFRQSIMILLAWVFHKPIILHAHGSQFHIFYAGLANWIQKLLSWIFCKCQRLIVLSESWKSFYIDTLGLKSEQVVVFYNPVKVPTEVPSRSFSTKLNLLFLGRIGQRKGAFDLIKAFSSLPTEYQTRSIMVMAGDGDIEKARDLVTTLNLQDYIQLPGWIGSDERDILLSKADIFVLPSYNEGLPLAMLEAMAWELPVIVTPVGGIPEIVTQSENGLIVNPGNVEQLSNAIKSLIENEALRLSLGAKARTSVFPLDIKKHWVDFIDLYNLVLNTMEEHSKG
MSAQAKPRSEMTAEELAAKEDEEFNVGPLSILTNSVKNNHQVLINCRNNKKLLGRVKAFDRHCNMVLENVKEMWTEVPKTGKGKKKAKSVAKDRFISKMFLRGDSVILVVKNPLAQAE
MGSDKIHHHHHHMIKLIVSDIDGTLVDSQGQLLPATITGVQAAVARGAQMVLASARSPKGMFGIAQQLGINSTMIAYNGALTATTDVNDRLTVFEEQAVDPKLAQAVQTVVAHDWPAASISIYSNNNWLVATNGPWEQQEATGIGYAPHVTDLGTWLQRMPTPVHKMMIMADPDIIQAIEQRLSRNEFSGLAVYRSKETYLEIVAAGVTKAAALMKLLQDDQVTPAETLAFGDNFNDVAMLQTAGIGVAMANAPQPVKEAANIVTTDNNHNGIQLTLAQYFADVTR
RGGSFAKSWRPMTMSYANLSVDKVEHRALVLNTPYSIIRTIGKQGLEEKRFYASEKELEQVFNPIHHLATDTTARFSQLRGRNVMVIIIESFARQYVGRLNQDIPDYKGYTPCFDSISQKGYLFEQAFANGRKSIDAMPSILSSLPSLRSHFITSHYSGNEIEGLGTALGRIGYQSIFLHGAPNGSMGFDAFVKQAGYKRYFGKTEYAHDEDFDGVWGIWDEPFLLHAVDELSRMKQPFVGTLFTLSSHEPFHIPSHREGLFPNEGEPLVQCIGYTDHALGEFFRKASRQTWFENTLFVITADHASGDLRPEYRSAVGR
RRENARRFDRKQYDFVDIDECAIQTKTYPGSDHDMAQDWLQKQMMILKPKYREPLLLSLVAGLNHDEIAQALRLNHNTVATRLFRARNQLIAQQGNH
MSLFPDKYDSYLYINQDKIREDLKRALKDALRICLFHITHKSPNIRTEKATRICYYRECGYTDEQIIDKILEEEYVGFVDNIESAIKSREARFRNPQNSAKIACFTENVQSKYMWDRYADGYKGFALEYDLRNCVFKYNKLGMNVNLFPVIYTDLRPDVTLDEGNIHTYEYFKQIGDKNWLNYLNSIISVNQLYWYKAYLYKDQKEYEHEHEWRMLYYNFENEEDYASIPDTGCLKAIYYGPDIAKKDKEKLHRIAVKKGLKEYDVNLDAESRKYDLKVTMFQEGHHHHHH
MNSTYQLFIDVTSRKCILAIYKNFKIHTSIIVDTNNNLTDIIVEHLNNLLKITNLQYQDLEAIYLNTGPGSFTGIRVGAIVAKTICTIFNKIKLFINDSLNIIANGKNDVFVYLDAKGNKSYVITITNNIQNEYKIITNKELQNELKNTSLTIIDANQIDYHDLIYNLKFDNFKLTNILDFRLNYVKKPLNLEHHHHHH

Soluble on expression in E. coli, soluble:
MSRAKAAPVAGPEVAANRAGRQARIVAILSSAQVRSQNELAALLAAEGIEVTQATLSRDLEELGAVKLRGADGGTGIYVVPEDGSPVRGVSGGTDRMARLLGELLVSTDDSGNLAVLRTPPGAAHYLASAIDRAALPQVVGTIAGDDTILVVAREPTTGAQLAGMFENLR
SVSPLKTRCCSPSSQQQASEAREIEQPSTVWELDFYSRPVYGKDNKRIWELIVVDESFLLCHVESVPNDMINSAELRKRVERLLEQVTVKPKVVKFSRMPMFNMISLALKDLGFEVKPSRRTYRLYHVLRDREANIYSKMPGYRSENTLSTSYLYSTERLPDALRGEKFAFCTADYSFLYELQSSDTIPYCDIFNTGDSILLEKELPGIIVYSERADSLASWTAGAEVSFIKFREEELELVLECGINSHYRLAKIAEDHRLVEEAKTFEQMKWHMKGFHFYAIQSLKETSGTSHIKGLWLLNDFMEQ
MSSSPAVKGLTDEEQKTLEPVIKTYHQFEPDPTTCTSLITQRIHAPASVVWPLIRRFDNPERYKHFVKRCRLISGDGDVGSVREVTVISGLPASTSTERLEFVDDDHRVLSFRVVGGEHRLKNYKSVTSVNEFLNQDSGKVYTVVLESYTVDIPEGNTEEDTKMFVDTVVKLNLQKLGVAATSAPMHDDE
GMLHYTKEDLLELGAEITTREIYQQPDVWREAFEFYQAKREEIAAFLQEIADKHDYIKVILTGAGTSAYVGDTLLPYFKEVYDERKWNFNAIATTDIVANPATYLKKDVATVLVSFARSGNSPESLATVDLAKSLVDELYQVTITCAADGKLALQAHGDDRNLLLLQPAVSNDAGFAMTSSFTSMMLTTLLVFDPTEFAVKSERFEVVSSLARKVLDKAEDVKELVDLDFNRVIYLGAGPFFGLAHEAQLKILELTAGQVATMYESPVGFRHGPKSLINDNTVVLVFGTTTDYTRKYDLDLVREVAGDQIARRVVLLSDQAFGLENVKEVALGCGGVLNDIYRVFPYIVYAQLFALLTSLKVENKPDTPSPTGTVNRVVQGVIIHEYQK
GMDYNQTVLSHLQKFWKHHDIKGFTWTLGRIVEELPDFQVFQVIPNHEDEPWVYVSSGIGQFLGQEFFIISPFETPEHIETLAMLASASMHYPDQFQLGKTVNIGRPWVEQSSFRHFLISLPYPYGQELEYMDNVRFFWLLPITQTERLFLNTHSVEELETKFDEAGIDYLDINRASTVWQAG
AVPIAQKSEPHSLSSEALMRRAVSLVTDSTSTFLSQTTYALIEAITEYTKAVYTLTSLYRQYTSLLGKMNSEEEDEVWQVIIGARAEMTSKHQEYLKLETTWMTAVGLSEMAAEAAYQTGADQASITARNHIQLVKLQVEEVHQLSRKAETKLAEAQIEELKQKTQEEGEERAESEQEAYLRED

From the DeepSol protein solubility set
